These results are taken from paper PMC8405949.

Data set [1] deals with DNA ligase IIIα, human wild-type full-length (1–922 aa) (human).
The target in data set [2] is DNA polymerase (pol) β, human wild-type full-length (1–335 aa) (human) (UniProt P06746).
The target is the same in data set [3]. Briefly: SPR; Biacore X-100, 25 °C; polβ, ligase IIIα or APTX amine-coupled on CM5; XRCC1 (wild-type or mutants) as analyte, 30 μl/min; 20 mM HEPES pH 7.4, 150 mM NaCl, 3 mM EDTA, 0.005% Surfactant P20; 1:1 (Langmuir) model. For orientation: SPR reads the build-up and loss of mass on a sensor chip optically.
Data set [4] deals with DNA ligase IIIα, human wild-type full-length (1–922 aa) (human). The data set is described as above.
In data set [5] the target is Aprataxin (APTX), human wild-type full-length (human) (UniProt Q7Z2E3). The data set is described as above.
Data set [6] deals with DNA ligase IIIalpha;XRCC1 wild-type (human;human) (UniProt P18887). Briefly: BLI. Conditions: 10 mM Mg2+, 1 mM ATP; 1:1 ligase/XRCC1; koff 2.0e-4; BLI (Octet QKe): 20 mM HEPES pH 7.4, 200 mM NaCl, 0.5% BSA, 0.05% Tween 20, 20 °C; ternary complexes plus 10 mM MgCl2 and 0.1 mM dGTP or 1 mM ATP. For orientation: BLI is a label-free optical method that tracks binding on a fibre tip over time.

The target of data set [7] is XRCC1 R280H R280H (human) (UniProt P18887). Briefly: BLI. Conditions: BLI (Octet QKe): 20 mM HEPES pH 7.4, 200 mM NaCl, 0.5% BSA, 0.05% Tween 20, 20 °C; ternary complexes plus 10 mM MgCl2 and 0.1 mM dGTP or 1 mM ATP.
Data set [8] concerns DNA ligase IIIalpha (human). Kind of data set: BLI. Conditions: BLI (Octet QKe): 20 mM HEPES pH 7.4, 200 mM NaCl, 0.5% BSA, 0.05% Tween 20, 20 °C, ternary complexes plus 10 mM MgCl2 and 0.1 mM dGTP or 1 mM ATP.
In the next data set the target is XRCC1 wild-type (human) (UniProt P18887). Kind of data set: BLI. Conditions: BLI (Octet QKe): 20 mM HEPES pH 7.4, 200 mM NaCl, 0.5% BSA, 0.05% Tween 20, 20 °C; ternary complexes plus 10 mM MgCl2 and 0.1 mM dGTP or 1 mM ATP.
For data set [9], the target named is DNA polymerase beta;XRCC1 wild-type (human;human) (UniProt P06746+P18887). Briefly: BLI. Conditions: BLI (Octet QKe): 20 mM HEPES pH 7.4, 200 mM NaCl, 0.5% BSA, 0.05% Tween 20, 20 °C; ternary complexes plus 10 mM MgCl2 and 0.1 mM dGTP or 1 mM ATP.
Data set [10] addresses DNA polymerase beta (human) (UniProt P06746). Briefly: BLI. The settings on record: BLI (Octet QKe): 20 mM HEPES pH 7.4, 200 mM NaCl, 0.5% BSA, 0.05% Tween 20, 20 °C; ternary complexes plus 10 mM MgCl2 and 0.1 mM dGTP or 1 mM ATP.
Data set [11] shares this target. Briefly: BLI. Conditions: BLI (Octet QKe): 20 mM HEPES pH 7.4, 200 mM NaCl, 0.5% BSA, 0.05% Tween 20, 20 °C; ternary complexes plus 10 mM MgCl2 and 0.1 mM dGTP or 1 mM ATP. This is another data set of the same source.

Chain of Aprataxin (APTX), human wild-type full-length (human) (Q7Z2E3 whole entry): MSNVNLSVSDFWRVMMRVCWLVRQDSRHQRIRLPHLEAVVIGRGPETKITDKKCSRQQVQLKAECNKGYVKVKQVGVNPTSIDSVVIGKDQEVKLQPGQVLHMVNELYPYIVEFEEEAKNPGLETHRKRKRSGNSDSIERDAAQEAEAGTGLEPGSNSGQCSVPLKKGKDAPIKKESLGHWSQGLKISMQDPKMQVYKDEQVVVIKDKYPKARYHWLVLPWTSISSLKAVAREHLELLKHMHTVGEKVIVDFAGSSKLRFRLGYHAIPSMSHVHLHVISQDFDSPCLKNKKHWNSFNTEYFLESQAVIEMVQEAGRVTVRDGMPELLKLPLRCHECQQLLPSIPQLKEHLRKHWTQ

Regarding “X-ray cross-complementing protein 1 (XRCC1), human wild-type full-length (1–633 aa) (from UniProt P18887 1-633) (natural protein)”, the amount of ligation products, nick sealing of nick DNA with 3′-dG:C by ligase IIIα, with against without XRCC1 in [1] amounted to 4 fold. In addition, the amount of ligation products in the coupled assay (polβ dGTP:C insertion coupled to ligation by ligase IIIα), with against without XRCC1 in data set [2] was found to be 2 fold. Moreover, the Kd in data set [3] was found to be 0.0102 µM; in data set [4], 0.0504 µM; in data set [5], 0.374 µM.

In [3], “XRCC1 R109A mutant (from UniProt P18887 1-633) (natural protein)” displayed a Kd of 0.17 µM.

“XRCC1 V86R mutant (from UniProt P18887 1-633) (natural protein)” returned a Kd in [3] of 0.284 µM.

“XRCC1 cancer-associated variant R399Q (from UniProt P18887 1-633) (natural protein)” yielded an equilibrium dissociation constant (Kd) in [3] of 0.0058 µM.

Take nick DNA with 3'-dG:C: the equilibrium dissociation constant (Kd) was 0.0065 µM in data set [6]; 0.14 µM in data set [7]; 0.022 µM in data set [8] (10 mM Mg2+, 1 mM ATP, no XRCC1, koff 5.0e-4); 0.005 µM in data set [8] (no ATP).

As to one nucleotide gap DNA, template C, the Kd worked out at 0.11 µM in the data set with XRCC1 wild-type (human); 0.153 µM in data set [7]; 0.03 µM in data set [9]; 0.355 µM in data set [10]; 0.0054 µM in data set [11].

The Kd is the free concentration of one partner at which half of the binding sites on the other are occupied at equilibrium, for simple one-to-one binding.
